The values below come from US20190060430A1 (published 2019).

Common to all, as to experiment: cytokine release
The target in test [1] is T1, TPTE peptide on HLA-DRB1*14:01 (human).
T1 peptide: SPISESVLARLSKFEVEDA

Test [2] addresses T2, TPTE peptide on HLA-DRB1*16:01 (human).
T2 peptide: NHYRVYNLCSERAYD

Test [3] has as its target T3, TPTE peptide on HLA-DRB5*02:02 (human).
T3 peptide: KLIRRRVSENKRRYT

For test [4], the target named is T4, TPTE peptide on HLA-DRB1*14:01 (human).
T4 peptide: WLHTSFIENNRLYLPKNEL

Test [5] deals with T5, TPTE peptide on HLA-DRB1*13:01 (human).
T5 peptide: KLIRRRVSENKRRYT

In test [6] the target is T6, TPTE peptide on HLA-DRB3*03:01 (human).
T6 peptide: IKLLRNIPRWTHLLR

In test [7] the target is T7, TPTE peptide on HLA-DRB1*07:01 (human).
T7 peptide: ILADLIFTDSKLYIPLEYR

Test [8] concerns the target T8, NY-ESO-1 peptide on HLA-DRB5*02:02 (human).
T8 peptide: SGNILTIRLTAADHRQLQL

Test [9] concerns the target T9, TPTE peptide on HLA-B*35:01 (human).
T9 peptide: YPSDFAVEI

Test [10] deals with T10, TPTE peptide on HLA-DRB4*01:01 (human).
T10 peptide: NWNLPPRRILFIKHFIIYS

The target in test [11] is T11, TPTE peptide on HLA-DRB1*15:01 (human).
T11 peptide: YVAYFAQVKHLYNWNLPPR

The target of test [12] is T12, TPTE peptide on HLA-DRB1*14:01 (human).
T12 peptide: KHFIIYSIPRYVRDLKIQI

Test [13] deals with T13, TPTE peptide on HLA-DRB1*13:01 (human).
T13 peptide: RFLDKKHRNHYRVYN

In test [14] the target is T14, TPTE peptide on HLA-DRB1*15:01 (human).
T14 peptide: ILFIKHFIIYSIPRY

Test [15] has as its target T15, TPTE peptide on HLA-DRB5*02:02 (human).
T15 peptide: IFFDIKLLRNIPRWTHLLR

B1: TCRCD4-TPT#6 (TCR, V domains shown)
Valpha: QKEVEQDPGPLSVPEGAIVSLNCTYSNSAFQYFMWYRQYSRKGPELLMYTYSSGNKEDGRFTAQVDKSSKYISLFIRDSQPSDSATYLCAMSAVSFGNVLHCGSGTQVIVLP
Vbeta: ETGVTQSPTHLIKTRGQQVTLRCSSQSGHNTVSWYQQALGQGPQFIFQYYREEENGRGNFPPRFSGLQFPNYSSELNVNALELDDSALYLCASSFGENTIYFGEGSWLTVV
With B1, the binding result in test [1] is “recognises”.

B2: TCRCD4-TPT#38 (TCR, V domains shown)
Valpha: ELKVEQNPLFLSMQEGKNYTIYCNYSTTSDRLYWYRQDPGKSLESLFVLLSNGAVKQEGRLMASLDTKARLSTLHITAAVHDLSATYFCAVGFRGSTLGRLYFGRGTQLTVWP
Vbeta: DAGVTQSPTHLIKTRGQHVTLRCSPISGHKSVSWYQQVLGQGPQFIFQYYEKEERGRGNFPDRFSARQFPNYSSELNVNALLLGDSALYLCASSWGQGNEKLFFGSGTQLSVL
For the molecule B2, in test [2], the binding result is given as “recognises”.

B3: TCRCD4-TPT#33 (TCR, V domains shown)
Valpha: DQQVKQNSPSLSVQEGRISILNCDYTNSMFDYFLWYKKYPAEGPTFLISISSIKDKNEDGRFTVFLNKSAKHLSLHIVPSQPGDSAVYFCAARSYGGSQGNLIFGKGTKLSVKP
Vbeta: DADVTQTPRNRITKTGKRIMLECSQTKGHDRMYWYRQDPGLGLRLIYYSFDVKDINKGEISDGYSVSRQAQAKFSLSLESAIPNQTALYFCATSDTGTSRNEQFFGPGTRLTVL
For the molecule B3, the binding result in test [3] is “recognises”.

B4: TCRCD4-TPT#13 (TCR, V domains shown)
Valpha: EDQVTQSPEALRLQEGESSSLNCSYTVSGLRGLFWYRQHPGKGPEFLFTLYSAGEEKEKERLKATLTKKESFLHITAPKPEDSATYLCAVQASNSGNTPLVFGKGTRLSVIA
Vbeta: DGGITQSPKYLFRKEGQNVTLSCEQNLNHDAMYWYRQDPGQGLRLIYYSQIVNDFQKGDIAEGYSVSREKKESFPLTVTSAQKNPTAFYLCASSAPHQRGTNEQFFGPGTRLTVL
B4: the binding result in [4] is listed as “recognises”.

B5: TCRCD4-TPT#51 (TCR, V domains shown)
Valpha: GENVEQHPSTLSVQEGDSAVIKCTYSDSASNYFPWYKQELGKRPQLIIDIRSNVGEKKDQRIAVTLNKTAKHFSLHITETQPEDSAVYFCAALSGGSNYKLTFGKGTLLTVNP
Vbeta: EAGVTQFPSHSVIEKGQTVTLRCDPISGHDNLYWYRRVMGKEIKFLLHFVKESKQDESGMPNNRFLAERTGGTYSTLKVQPAELEDSGVYFCASSQQENTEAFFGQGTRLTVV
With B5, the binding result in [5] was “recognises”.

B6: TCRCD4-TPT#27 (TCR, V domains shown)
Valpha: GENVEQHPSTLSVQEGDSAVIKCTYSDSASNYFPWYKQELGKRPQLIIDIRSNVGEKKDQRIAVTLNKTAKHFSLHITETQPEDSAVYFCAALYSGGGADGLTFGKGTHLIIQP
Vbeta: DGGITQSPKYLFRKEGQNVTLSCEQNLNHDAMYWYRQDPGQGLRLIYYSQIVNDFQKGDIAEGYSVSREKKESFPLTVTSAQKNPTAFYLCASSIGGGVNTEAFFGQGTRLTVV
Turning to B6, the binding result in test [6] is given as “recognises”.

B7: TCRCD4-TPT#11 (TCR, V domains shown)
Valpha: SQQGEEDPQALSIQEGENATMNCSYKTSINNLQWYRQNSGRGLVHLILIRSNEREKHSGRLRVTLDTSKKSSSLLITASRAADTASYFCAGYNTNAGKSTFGDGTTLTVKP
Vbeta: NAGVTQTPKFRILKIGQSMTLQCAQDMNHNYMYWYRQDPGMGLKLIYYSVGAGITDKGEVPNGYNVSRSTTEDFPLRLELAAPSQTSVYFCASSFGQVWADTQYFGPGTRLTVL
As to B7, the binding result in test [7] was “recognises”.

B8: TCRCD4-NY#13 (TCR, V domains shown)
Valpha: KQEVTQIPAALSVPEGENLVLNCSFTDSAIYNLQWFRQDPGKGLTSLLLIQSSQREQTSGRLNASLDKSSGRSTLYIAASQPGDSATYLCAVPTDSWGKLQFGAGTQVVVTP
Vbeta: DTGVSQDPRHKITKRGQNVTFRCDPISEHNRLYWYRQTLGQGPEFLTYFQNEAQLEKSRLLSDRFSAERPKGSFSTLEIQRTEQGDSAMYLCASSSKLTGIPEGTDTQYFGPGTRLTVL
In the case of B8, in test [8], the binding result is listed as “recognises”.

B9: TCRCD8-TPT#3 (TCR, V domains shown)
Valpha: TQLLEQSPQFLSIQEGENLTVYCNSSSVFSSLQWYRQEPGEGPVLLVTVVTGGEVKKLKRLTFQFGDARKDSSLHITAAQPGDTGLYLCAGAQGQKLLFARGTMLKVDL
Vbeta: DTGVSQNPRHKITKRGQNVTFRCDPISEHNRLYWYRQTLGQGPEFLTYFQNEAQLEKSRLLSDRFSAERPKGSFSTLEIQRTEQGDSAMYLCASSHLAGGNTGELFFGEGSRLTVL
For B9, in test [9], the binding result is reported as “recognises”.

B10: TCRCD4-TPT#4 (TCR, V domains shown)
Valpha: AQKITQTQPGMFVQEKEAVTLDCTYDTSDPSYGLFWYKQPSSGEMIFLIYQGSYDQQNATEGRYSLNFQKARKSANLVISASQLGDSAMYFCATASNFGNEKLTFGTGTRLTIIP
Vbeta: SAVISQKPSRDICQRGTSLTIQCQVDSQVTMMFWYRQQPGQSLTLIATANQGSEATYESGFVIDKFPISRPNLTFSTLTVSNMSPEDSSIYLCSVDRDREDGYTFGSGTRLTVV
On to B10, for which the binding result in test [10] is listed as “recognises”.

B11: TCRCD4-TPT#49 (TCR, V domains shown)
Valpha: AQTVTQSQPEMSVQEAETVTLSCTYDTSENNYYLFWYKQPPSRQMILVIRQEAYKQQNATENRFSVNFQKAAKSFSLKISDSQLGDTAMYFCAFMKNTGNQFYFGTGTSLTVIP
Vbeta: DGGITQSPKYLFRKEGQNVTLSCEQNLNHDAMYWYRQDPGQGLRLIYYSQIVNDFQKGDIAEGYSVSREKKESFPLTVTSAQKNPTAFYLCASRRLDGLGIGELFFGEGSRLTVL
As for B11, in test [11], the binding result is listed as “recognises”.

B12: TCRCD4-TPT#5 (TCR, V domains shown)
Valpha: AQTVTQSQPEMSVQEAETVTLSCTYDTSESDYYLFWYKQPPSRQMILVIRQEAYKQQNATENRFSVNFQKAAKSFSLKISDSQLGDAAMYFCAYSRTSGTYKYIFGTGTRLKVLA
Vbeta: ETGVTQTPRHLVMGMTNKKSLKCEQHLGHNAMYWYKQSAKKPLELMFVYNFKEQTENNSVPSRFSPECPNSSHLFLHLHTLQPEDSALYLCASSQEISGSSYEQYFGPGTRLTVT
As to B12, the binding result in [12] is on record as “recognises”.

B13: TCRCD4-TPT#42 (TCR, V domains shown)
Valpha: GQQVMQIPQYQHVQEGEDFTTYCNSSTTLSNIQWYKQRPGGHPVFLIQLVKSGEVKKQKRLTFQFGEAKKNSSLHITATQTTDVGTYFCAGSTGGGNKLTFGTGTQLKVEL
Vbeta: GAGVSQSPRYKVAKRGQDVALRCDPISGHVSLFWYQQALGQGPEFLTYFQNEAQLDKSGLPSDRFFAERPEGSVSTLKIQRTQQEDSAVYLCASSDFYEQYFGPGTRLTVT
For B13, the binding result in [13] is “recognises”.

B14: TCRCD4-TPT#45 (TCR, V domains shown)
Valpha: GESVGLHLPTLSVQEGDNSIINCAYSNSASDYFIWYKQESGKGPQFIIDIRSNMDKRQGQRVTVLLNKTVKHLSLQIAATQPGDSAVYFCAETRQGGKLIFGQGTELSVKP
Vbeta: GAVVSQHPSWVICKSGTSVKIECRSLDFQATTMFWYRQFPKQSLMLMATSNEGSKATYEQGVEKDKFLINHASLTLSTLTVTSAHPEDSSFYICSAPPGVTVRAYGYTFGSGTRLTVV
Take B14: the binding result in [14] is recorded as “recognises”.

B15: TCRCD4-TPT#17 (TCR, V domains shown)
Valpha: DQQVKQNSPSLSVQEGRISILNCDYTNSMFDYFLWYKKYPAEGPTFLISISSIKDKNEDGRFTVFLNKSAKHLSLHIVPSQPGDSAVYFCAASPNTGNQFYFGTGTSLTVIP
Vbeta: GAGVSQSPSNKVTEKGKDVELRCDPISGHTALYWYRQSLGQGLEFLIYFQGNSAPDKSGLPSDRFSAERTGGSVSTLTIQRTQQEDSAVYLCASSLTGGPYEQYFGPGTRLTVT
Turning to B15, the binding result in test [15] is “recognises”.
